Results: article PMC9569990 (International Journal of Molecular Sciences, 2022)
Each block holds one binder with its values, some of them ahead of it.

Columns and labels:
Test in all cases: SPR; cytokine immobilised on ProteOn GLH sensor chip by amine coupling (9,000-14,000 RU); S100P (wild type or mutant) as analyte, 62 nM-16 µM; 25 °C; 10 mM HEPES, 150 mM NaCl, 1 mM CaCl2, 0.05% TWEEN 20, pH 7.4; heterogeneous ligand model (two ligand populations), one-site model for IL-13; values averaged over analyte concentrations (n = 3-5)
Settings in all cases: both partners purified
[1] = target: T1, Interleukin-22 (human, UniProt Q9GZX6 34-179)
T1 construct: Interleukin-22, human, UniProt Q9GZX6; see the manufacturer's catalogue number; also called IL-22; source: bought: PeproTech (source E. coli)
T1 sequence (looked up): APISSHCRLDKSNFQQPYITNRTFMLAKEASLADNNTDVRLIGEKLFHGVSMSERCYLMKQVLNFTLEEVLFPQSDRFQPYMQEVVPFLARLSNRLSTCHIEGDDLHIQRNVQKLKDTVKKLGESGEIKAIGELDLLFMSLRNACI

[2] = target: T2, Interleukin-15 (human, UniProt P40933 49-162)
T2 construct: Interleukin-15, human, UniProt P40933; see the manufacturer's catalogue number; also called IL-15; source: bought: PeproTech (source E. coli)
T2 sequence (P40933 49-162): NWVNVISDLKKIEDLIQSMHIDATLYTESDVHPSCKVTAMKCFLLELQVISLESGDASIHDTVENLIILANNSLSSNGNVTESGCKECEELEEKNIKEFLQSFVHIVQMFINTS

[3] = target: T3, Thrombopoietin (human, UniProt P40225 22-353)
T3 construct: Thrombopoietin, human, UniProt P40225; see the manufacturer's catalogue number; also called THPO; source: bought: SCI-Store (Russia) (source CHO)
T3 sequence (P40225 22-353): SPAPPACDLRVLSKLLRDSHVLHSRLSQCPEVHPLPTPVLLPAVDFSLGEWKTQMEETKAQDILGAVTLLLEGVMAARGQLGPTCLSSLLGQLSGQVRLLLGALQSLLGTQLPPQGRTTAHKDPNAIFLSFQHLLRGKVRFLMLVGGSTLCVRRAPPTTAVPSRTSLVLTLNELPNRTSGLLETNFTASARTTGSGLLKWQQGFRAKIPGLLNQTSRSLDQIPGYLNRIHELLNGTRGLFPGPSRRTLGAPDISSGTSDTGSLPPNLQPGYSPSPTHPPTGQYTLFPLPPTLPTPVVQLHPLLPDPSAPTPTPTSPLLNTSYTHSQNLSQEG

[4] = target: T4, Leptin (human, UniProt P41159 22-167)
T4 construct: Leptin, human, UniProt P41159; see the manufacturer's catalogue number; source: bought: PeproTech (source E. coli)
T4 sequence (P41159 22-167): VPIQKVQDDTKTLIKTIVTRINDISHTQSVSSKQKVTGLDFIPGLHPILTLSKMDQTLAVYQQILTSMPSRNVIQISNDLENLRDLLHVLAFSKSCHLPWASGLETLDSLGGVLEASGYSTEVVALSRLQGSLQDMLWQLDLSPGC

[5] = target: T5, Growth hormone variant (human, UniProt P01242 27-217)
T5 construct: Growth hormone variant, human, UniProt P01242; see the manufacturer's catalogue number; also called GH-V; source: bought: R&D Systems (source E. coli)
T5 sequence (P01242 27-217, change not shown): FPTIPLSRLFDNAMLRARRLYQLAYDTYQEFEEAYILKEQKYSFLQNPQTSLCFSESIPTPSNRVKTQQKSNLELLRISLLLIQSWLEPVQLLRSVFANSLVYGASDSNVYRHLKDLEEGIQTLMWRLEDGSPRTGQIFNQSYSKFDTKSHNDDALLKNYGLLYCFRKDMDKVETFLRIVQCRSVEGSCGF

[6] = target: T6, Interleukin-21 (human, UniProt Q9HBE4 25-162)
T6 construct: Interleukin-21, human, UniProt Q9HBE4; see the manufacturer's catalogue number; also called IL-21; source: bought: PeproTech (source E. coli)
T6 sequence (Q9HBE4 25-162): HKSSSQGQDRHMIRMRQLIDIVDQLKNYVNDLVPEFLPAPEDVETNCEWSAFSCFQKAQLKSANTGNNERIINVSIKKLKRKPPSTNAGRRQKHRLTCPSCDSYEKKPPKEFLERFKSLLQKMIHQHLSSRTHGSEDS

[7] = target: T7, Interleukin-26 (human, UniProt Q9NPH9 22-171)
T7 construct: Interleukin-26, human, UniProt Q9NPH9; see the manufacturer's catalogue number; also called IL-26; source: bought: R&D Systems (source E. coli)
T7 sequence (looked up): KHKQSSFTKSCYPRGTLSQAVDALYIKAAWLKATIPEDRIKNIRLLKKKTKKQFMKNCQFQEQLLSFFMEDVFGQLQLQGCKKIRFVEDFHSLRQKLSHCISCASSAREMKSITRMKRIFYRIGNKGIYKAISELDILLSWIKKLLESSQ

[8] = target: T4, Leptin; remark: listed apart in the source

Kd1 (heterogeneous ligand model, population 1) [1]: 482 nM | Kd2 (heterogeneous ligand model, population 2) [1]: 780 nM | kd1 (heterogeneous ligand model, population 1) [1]: 0.00764 s⁻¹ | kd2 (heterogeneous ligand model, population 2) [1]: 0.00276 s⁻¹ | Kd1 (heterogeneous ligand model, population 1) [2]: 102 nM | Kd2 (heterogeneous ligand model, population 2) [2]: 980 nM | kd1 (heterogeneous ligand model, population 1) [2]: 0.00109 s⁻¹ | kd2 (heterogeneous ligand model, population 2) [2]: 0.0272 s⁻¹ | Kd1 (heterogeneous ligand model, population 1) [3]: 834 pM | Kd2 (heterogeneous ligand model, population 2) [3]: 41.2 nM | kd1 (heterogeneous ligand model, population 1) [3]: 0.000409 s⁻¹ | kd2 (heterogeneous ligand model, population 2) [3]: 0.00829 s⁻¹ | Kd1 (heterogeneous ligand model, population 1) [4]: 143 nM | Kd2 (heterogeneous ligand model, population 2) [4]: 404 nM | kd1 (heterogeneous ligand model, population 1) [4]: 0.000452 s⁻¹ | kd2 (heterogeneous ligand model, population 2) [4]: 0.0307 s⁻¹
B1: Human S100P protein (recombinant, Ca^2+-loaded) (natural protein)
chain: MTELETAMGMIIDVFSRYSGSEGSTQTLTKGELKVLMEKELPGFLQSGKDKDAVDKLLKDLDANGDAQVDFSEFIVFVAAITSACHKYFEKAGLK
notes: S100P protein, human, recombinant; probably the whole 95-residue protein (surmise); also called wild-type S100P; WT S100P; source: E. coli, prepared as previously described [28]

Kd [5]: > 100 µM | Kd1 (heterogeneous ligand model, population 1) [6]: 401 nM | Kd2 (heterogeneous ligand model, population 2; column head printed as Kd1) [6]: 950 nM | Kd [7]: > 100 µM | Kd1 (heterogeneous ligand model, population 1) [8]: 4.37 µM | Kd2 (heterogeneous ligand model, population 2; column head printed as Kd1) [8]: 35.7 µM
B2: Human S100P mutant F89A (natural protein)
chain: MTELETAMGMIIDVFSRYSGSEGSTQTLTKGELKVLMEKELPGFLQSGKDKDAVDKLLKDLDANGDAQVDFSEFIVFVAAITSACHKYAEKAGLK
notes: S100P protein, human, recombinant, with F89A; source: E. coli, prepared as previously described [28]

Kd [5]: > 100 µM | Kd [6]: > 100 µM | Kd [7]: > 100 µM | Kd [8]: > 100 µM
B3: Human S100P mutant Δ42–47 (lacks PGFLQS sequence in the 'hinge') (natural protein)
chain: MTELETAMGMIIDVFSRYSGSEGSTQTLTKGELKVLMEKELGKDKDAVDKLLKDLDANGDAQVDFSEFIVFVAAITSACHKYFEKAGLK
notes: S100P protein, human, recombinant, with residues 42-47 (PGFLQS) deleted; source: E. coli, prepared as previously described [28]
